Target: TIGIT on PHA-activated human peripheral blood mononuclear cells (PBMC) (human) (UniProt Q495A1)
Experiment: cell-based or functional assay

Sequence of TIGIT on PHA-activated human peripheral blood mononuclear cells (PBMC) (human) (Q495A1 22-244): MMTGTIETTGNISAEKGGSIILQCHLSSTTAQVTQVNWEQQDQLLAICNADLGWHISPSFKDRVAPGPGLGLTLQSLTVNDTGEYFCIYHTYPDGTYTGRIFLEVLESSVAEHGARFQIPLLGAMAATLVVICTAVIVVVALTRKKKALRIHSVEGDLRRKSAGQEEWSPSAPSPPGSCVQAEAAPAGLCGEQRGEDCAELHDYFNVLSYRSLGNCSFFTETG

IFNγ release, increase over no antibody: 16%
Substance: Tiragolumab (antibody)

Source: US20240417462A1
